The text below walks through data of a protein production outcome set (Wang et al. 2014).

The series in a line: label from the status in PepcDB records.
On to “MTPLAEDFGAQGDAATRARWMALVEKTLKGQSFDDALTITTADGLTIQPLYTAEDGVAVARDLRARDTDRPWDLRMRAAHPDPIRAAKDVLTDLEGGAASVLLQIDPTGVNGVAIGSADDLGKALSGVLLDLAPVALDAGFLGPKAADWLGALAKAAPNAPLAFHLDPLTAFAQTGVSPGPIESHVFNAATVATRLSATYARASLFLATGRTAHEAGGSNVEELALMTAAALAYAKALVRSGLTIEEAFGRIALGVSLDGEYFTGVAKVRAAKALWARLTESCGVTVAPTIEARSSRRMLAKADAWTNLLRLTSAGFAGAVGGADAIVLDAFTDAIGLPTAFARRQARNTQLVLMEESHLGRVADPAGGAWYLDSLTDQLARAAWASFQAIEAAGGVIKALESGLVADAVAKSRTAQEAAYADKSRKILGVTVFPNADDKPPEVETPDSSAFAVQGPDVRLPGPDSHCPALTPVRFAAAFEGA”, for which the protein production result is listed as “failed”. With “MSIDFYNQNASSFYASTVEVDSSSLLEQFTPYLPKGGSVLDAGCGSGRDSKRLIELGFHVDAFDASAALATLAQQLLGKPVRVATFMQFTSTLQYDGIWACASLLHVSKASLPDAFAHLASMLKSGGAFYCSFKYGQGEVERDGRSFTHCDEALLAELLTGSPLVIDKVWLTLEHHHHHH” the entry was “failed”; with “MSLSAMPAALSFAGLAGWAEEDHLAALNAFRAGCGVSKDPAAARVCGLAKATKDLDVSGAKAFIEANFRVEAVDGGGDGLLTAYFAPQYEARMSRNAEFSAPLRGLPADLVVLDLGPFEPALVGKKITGHVEGSTFVPYPDRAEIEATPSDKPLAWMRPEELFFLQIQGSGVLVLPDGRRVRAVFAGTNGKPFVGIAIAMRDKGLLPDNNTSADAIRTWLAEHRGPEADAIMRLNPRYVFFRTVPDDGKEPAGAAGVALPPGRAIAVDPGYHAYGGFYWLDAAAPKLVGAFPVYRRAVTALDTGGAIKGEVRADLYMGSGAVAGVEAGRVRHTLRLYRLTPNPEGHHHHHH”, “not failed”; with “MDIYIGFSLQIYVIQVRRKPTENLQKTYKKSGNGILFICLIANCEICGTNLLTSELYIPTFTSKTKVMKKRVSAVVIVLVCLGGVACIKTLSTSSVGLPQLAFDNIEALASGESSAYRCYGIGDVDCHGDKVDKMYSGYSLK”, “failed”. With “MKISFSEIIHNALKEDLGDKGDITTNSILINEKVNFAINTRENLVVCGIPILEEVFNMNKEHVKYEIHKKDGDITGKNSTLVSGEALAIYLLPIERVILNFIQHASGIASITRQFVDEVSGTKVKIRSTRKTTPGLRMLDKYSVCIGGGESYRDNLCDGVLIKDNHIASCGSITLAIQRLRKNLKNEYIAIECDNISQVEESLSNNVDMILLDNMSISEIKKAVDIVNGKSVLEVSGCVNIRNVRNIALTGVDYISIGCITNSFQNKDIGLDIEYNNNK” the entry was “not failed”; with “MTATQITGVVLAAGRSNRLGTPKQLLPYRDTTVLGATLDVARQAGFDQLILTLGGAASAVRAAMALDGTDVVVVEDVERGCAASLRVALARVHPRATGIVLMLGDQPQVAPATLRRIIDVGPATEIMVCRYADGVGHPFWFSRTVFGELARLHGDKGVWKLVHSGRHPVRELAVDGCVPLDVDTWDDYRRLLESVPSLEHHHHHH”, “failed”; with “MYLCGSNQSRKETLENKRYNNVEEWANTLSHGAGILLGVIAGYFLLAKAAAGAEPKWAVACVTVYLFGMLSSYVSSTWYHGSRPGKLKELLRKFDHGAIYLHIAGTYTPFTLLVMRHAGGWGWGIFSFVWLSAIVGFILSFKKLKEHSNLETACYIAMGACILVAMKPLMDHLAEMGAGPAFWWLIGGGVSYIIGAVFYSLRKPYMHATFHLFCLGGSIGHIIAIWLIL”, “failed”.

Regarding “MIMEHEYRLEVRGYELDSFGHVNNAVYLNYLEAARWDLCSKLNLTDYNESNELFIVVIETNIKYIRELKLFDKVLIKTELTYEDDYLIFKHNIYNEVTKRKASVAKSKMVLVSKQRIIYEIPQFIKDKLDICAYGLEHHHHHH”, the protein production entry is listed as “failed”. With “MNEHNITNTSLALSMLLVVVAMLISHKEKLALEKDILWSVCRAVIQLIIVGYVLKYIFGVNHAALTLLMVLFICFNAAWNAQKRSKYIDKAFLSSFIAITVGAGLTLTVLVLTGSIEFAPMQVIPIAGMVAGNAMVAVGLCYNQLGLRFHSEQQQIQEKLSLGATPKMASAGLIRDSIRASLIPTIDSAKTVGLVSLPGMMSGLIFAGIDPVKAIKYQIMVTFMLLSTASLSTIIACYLTYRKFYNSRHQLVVMPLKKS” the entry was “failed”. With “MVKQCSPAHNIFERVSKCYVEKQQPHDVSIPNIRLTVSATGLAFGSVHQANANQNQIACFYFSCNFSSKSNHHQSQAIVREEIQKNLRPVRIVGHQSMASSWRRSIGNVRSFIGNSMGGLRGGQSAASWVVAGTIAYFLWIKPEQDLKKEQEARAALAMADTNQYVEKRKPIADPQVTGLIYGNKNGTDKSED” the entry was “failed”; with “MTAETPSLTSPQAQRILRLYHLYRLTIGVVLVLLISSSLETELLQLANPNLFRSGCWLYLVFNILVVVLLERPSRQAQLFGLAMTDAIMLSGLFYAAGGPSSGIGNLLIASVAISNVLLRGRIGLLIAAVSAIGIIYLTFYISFGTPSVSNDYVQAGSLGALCFAAALLVQALTARLQVSEGLAEQRAADVDSLEELNALILQRMRTGIVVLDARRQVVLANQGALTLLGHERLVGQVIDAYSPQLVERLRQWLINPIMVPRSITTSSIGPVLQPSFAALNRGDQRQTLIFLEDLSQIAHQAQQLKLAALGRLTAGIAHEIRNPLGAVSHAAQLLNESEDLSAPDRRLGQIIHDQSQRIDRVIENVLQLSRRREAQPELLDLKVWLENFVSDFRSSAAADQSIHVQISSGMLTTRMDAGQLTQIITNLVQNGLRYSRRNHPSAQVWLNLHHDRESDLPILEVLDDGPGVSEQHLSKIFEPFFTTESKGTGLGLYLSRELCESNQAHLEYIPRPHDGGSCLRITFAHPFKTS”, “failed”. In the case of “MKLPRLWPTALSLLCSLALAQAPASPGTTAQGPAPAAVAGLAALPGGTRLVCAGTSLWTLSTSAAPQRLPLPEDCQGLRVSPSGKVVLVSGRASVTVWRLDAEQQSDGQLWRRVALPEPARRVAFLNDSTLLLAGARGLEQLDLNTQARTLLRPGAVTGLATAPDGRRAVMGDGSRVQLVNVADGAVLSGVRCEVACPLQDVQFSRDQRGAVVQAGPVLYALREGHPATAVLRGAEGAMGFPLPDGGVWVLTAGRLERRDAQTGRREGVLRPEGVSGPAAWTPEGGLLYVAGRELVELDKTGQEVGRTALP”, the protein production result is listed as “failed”. With “MKSLHRPDLYSWSTFNPARNIDFNGFAWIRPEGNILIDPVALSNHDWKHLESLGGVVWIVLTNSDHVRSAKEIADQTYTKIAGPVAEKENFPIYCDRWLSDGDELVPGLKVMELQGSKTPGELALLLEETTLITGDLVRAYRAGGLEILPDEKLMNKQKVVASVRRLAALEKVEAVLVGDGWSVFRDGRDRLKELVATLA” the entry was “not failed”.

Take “MDELFAKAPIKKVYFKLALPVVLGMITTMIYNLADTMFVAKTSDTNLVAGITIGAPLFTFLIAVSDIFGLGGSSLISRLFGERNYQLSKRVSSFCMIGGFVTGLILTAILLIFENPILHLLGAKAATYQDAADFYRIISIGAAPIVFSIIPQNLIRTEGLATQAMIATMTGTILAIILDPIFLFVFKMGAIGVGIANITGYLVTDIILIYYVLCKTEYIKLKLKYTKISGKTIKDIVAIGIPGSITNFAQSFGMALLNSSLALYGANKVAAMGITQKIYSIVILVIVGFAFGSQPLIGYNYGAKNWKRLKKILNFDILVQVVYAVVSGGLLILFARPVTALFMNQPDIVNAGSYMLIATIITTPIVGIILVYTTVFQSVGNAWAAFIMAIARQGVVYFIALETLKNIFGYHGIVWAQAVSDVITCIIGYFIYEKSLDLKDKIKN”: the protein production result is on record as “failed”. Regarding “MAILEYIMLLFIGLIAGTVGSLVGLGGGIIIVPLLIGLHSLSPQLAVGTSMVTVVFTGLSSTLTYMKHKRVDYKSGLILFIGSGPGGIIGSWANKFLNQDTFSLYFGIFLIFVSILLMLRDKLKPLSLSNTSVIKRSFTDNDGNTVHYQFPPFLAIFIAFIVGFISGLFGIGGGALLVPAMMLLFAFPAHIAVATSMFIVFLSAIVSSATHISLGNVSWIYALILIPGAWIGGKIGAYINTKLSGNAVINLLRITLIILGTRLIIISLL”, the protein production result is reported as “failed”. Under “MLIFKIFRRSEWDDFRRAGATAGAPVDLADGYIHFSTAAQVAETAAKHFTAESDLVLVAIDPDRAGPDLKWEPSRGEQLFPHLYRRLTLDDVVWDKSLPLGATGHIFPEGLWLEHHHHHH” stands “not failed”.
